Test results reported in IntAct's records for PubMed 26688217.

B1: SUN domain-containing protein 2 (Mus musculus), Q8BJS4-3 (parent)
chain: MSRRSQRLTRYSQDDNDGGSSSSGASSVAGSQGTVFKDSPLRTLKRKSSNMKHLSPAPQLGPSSDSHTSYYSESVVRESYIGSPRAVSLARSALLDDHLHSEPYWSGDLRGRRRRGTGGSESSKANGLTAESKASEDFFGSSSGYSSEDDLAGRLFGLLYWWIGTTWYRLTTAASLLDVFVLTRSRHFSLNLKSFLWFLLLLLLLTGLTYGAWHFYPLGLQTLQPAVVSWWAAKESRKQPEVWESRDASQHFQAEQRVLSRVHSLERRLEALAADFSSNWQKEAIRLERLELRQGAAGHGGGSSLSHEDALSLLEGLVSRREATLKEDLRRDTVAHIQEELATLRAEHHQDSEDLFKKIVQASQESEARVQQLKTEWKSMTQEAFQESSVKELGRLEAQLASLRQELAALTLKQNSVADEVGLLPQKIQAARADVESQFPDWIRQFLLGDRGARSGLLQRDEMHAQLQELENKILTKMAEMQGKSAREAAASLGQILQKEGIVGVTEEQVHRIVKQALQRYSEDRIGMVDYALESGGASVISTRCSETYETKTALLSLFGIPLWYHSQSPRVILQPDVHPGNCWAFQGPQGFAVVRLSARIRPTAVTLEHVPKALSPNSTISSAPKDFAIFGFDEDLQQEGTLLGTFAYDQDGEPIQTFYFQASKMATYQVVELRILTNWGHPEYTCIYRFRVHGEPAH

Variants of: B1
Conditions: with Syne2, Q6ZWQ0-1
For L400A;L403A, the “effect of a mutation on the interaction” value was “disrupting interaction strength”.
